Test [1] deals with T1, recombinant soluble FLT3 (human, UniProt P36888 27-541, limits assumed).
T1 construct: For the ELISA it says only 'recombinant soluble FLT3'; also called soluble recombinant FLT3; Fms-like tyrosine kinase 3
T1 sequence (looked up): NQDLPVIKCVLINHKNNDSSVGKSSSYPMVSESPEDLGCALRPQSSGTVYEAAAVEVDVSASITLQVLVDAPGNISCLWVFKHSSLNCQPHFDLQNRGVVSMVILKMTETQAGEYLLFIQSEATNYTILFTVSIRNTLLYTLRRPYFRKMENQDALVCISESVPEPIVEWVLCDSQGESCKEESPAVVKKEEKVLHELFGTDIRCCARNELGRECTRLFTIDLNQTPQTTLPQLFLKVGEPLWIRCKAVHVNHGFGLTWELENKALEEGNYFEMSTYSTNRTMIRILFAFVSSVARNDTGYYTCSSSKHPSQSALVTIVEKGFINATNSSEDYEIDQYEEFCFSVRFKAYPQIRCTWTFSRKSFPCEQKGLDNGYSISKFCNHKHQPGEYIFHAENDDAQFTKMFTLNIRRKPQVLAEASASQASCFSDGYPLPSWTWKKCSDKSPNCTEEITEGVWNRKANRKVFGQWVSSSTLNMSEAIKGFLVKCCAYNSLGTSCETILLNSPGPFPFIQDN
Put plainly: ELISA on recombinant soluble FLT3 (FIG. 1C). For orientation: An ELISA detects its analyte on a solid surface through an enzyme-linked reagent.

A further test deals with T2, cell-surface FLT3 (UniProt P36888 27-993, limits assumed).
T2 construct: whole, on cells; also called FLT3 on FLT3-positive RS4; 11 cells
T2 sequence (looked up): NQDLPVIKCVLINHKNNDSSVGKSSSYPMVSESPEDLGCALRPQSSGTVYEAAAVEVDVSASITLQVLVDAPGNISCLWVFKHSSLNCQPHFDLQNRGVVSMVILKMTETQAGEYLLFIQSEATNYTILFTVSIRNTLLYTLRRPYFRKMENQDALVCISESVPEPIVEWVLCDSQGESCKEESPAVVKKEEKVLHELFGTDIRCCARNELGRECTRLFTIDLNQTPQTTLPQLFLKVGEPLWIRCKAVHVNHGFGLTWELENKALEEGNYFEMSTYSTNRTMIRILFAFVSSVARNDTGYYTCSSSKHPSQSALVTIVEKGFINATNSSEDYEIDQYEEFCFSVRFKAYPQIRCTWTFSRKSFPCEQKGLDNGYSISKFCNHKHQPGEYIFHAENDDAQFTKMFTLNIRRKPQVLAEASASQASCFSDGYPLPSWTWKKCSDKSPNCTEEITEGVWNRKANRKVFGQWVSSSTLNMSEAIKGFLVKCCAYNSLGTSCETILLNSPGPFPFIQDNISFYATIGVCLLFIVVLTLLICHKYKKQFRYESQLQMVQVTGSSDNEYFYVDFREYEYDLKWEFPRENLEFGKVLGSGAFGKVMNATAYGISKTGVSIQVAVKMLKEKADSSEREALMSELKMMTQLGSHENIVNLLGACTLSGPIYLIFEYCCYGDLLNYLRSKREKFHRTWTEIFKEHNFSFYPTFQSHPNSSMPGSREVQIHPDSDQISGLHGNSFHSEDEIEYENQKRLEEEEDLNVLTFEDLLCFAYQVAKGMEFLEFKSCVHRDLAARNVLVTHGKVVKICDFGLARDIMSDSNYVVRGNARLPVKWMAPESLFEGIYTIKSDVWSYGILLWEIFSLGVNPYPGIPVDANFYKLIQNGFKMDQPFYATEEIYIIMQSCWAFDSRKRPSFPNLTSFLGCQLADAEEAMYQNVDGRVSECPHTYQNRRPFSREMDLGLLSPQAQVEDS
Nature of the test: flow cytometry on RS4;11 cells, anti-His-PE detection.

For test [2], the target named is T1, recombinant soluble FLT3. Put plainly: ELISA on recombinant soluble FLT3 (FIG. 1B).
For test [3], the target named is T1, recombinant soluble FLT3. Put plainly: ELISA on recombinant soluble FLT3 (FIG. 1A).

Where a chain is given by its changes, count along the chain named.

B1: m1012 (VHH)
VHH: EVQLVESGGGLVQPGGSLRLSCAASRFYFSGYEMSWVRQAPGKGLEWVSAISGSGGSTYYADSVKGRFTISRDNSKNTLYLQMNSLRAEDTAVYYCARRVVGAKLYFQHWGQGTLVTVSS
notes: Human VH single-domain antibody (not camelid) from a phage display VH domain library; Detected with anti-His-PE; also called single-domain antibody m1012
For B1, the binding result with recombinant soluble FLT3 [1] and with cell-surface FLT3 was “binds” in each case.

B2: m1008 (scFv)
scFv: QVQLQESGPGLVKPSQTLSLTCTVSGGSISSSGYYWSWVRQSPGKGLEWIGEIYQSGNTNYNPSLKSRVTISVDKPKNQLSLKLGSVTAADTAVYYCARGGSYYDYWGQGTLVTVSSGGGGSGGGGSGGGGSQSVVTQPPSVSAAPGQKVTISCSGSNSNIGNNYVSWYQQLPGTAPKVLIYDNNVRPSGIPDRFSGSKSGTSATLGITGLQTGDEADYYCETWDSSLNVGMFGGGTQLIVL
notes: Fully human; isolated from a phage display scFv library; Detected with anti-His-PE
B2: the binding result with cell-surface FLT3 and with recombinant soluble FLT3 [2] was “binds” in each case.

B3: m1006 (antibody, V domains shown)
VH: EVQLVESGGGLVQPGGSLRLSCAASGFTFSSYGMHWVRQAPGKGLEWVAVISYDGSNKYYADSVKGRFTISRDNSKNTLYLQMNSLRAEDTAVYYCANLAPWAAYWGQGTLVTVSS
VL: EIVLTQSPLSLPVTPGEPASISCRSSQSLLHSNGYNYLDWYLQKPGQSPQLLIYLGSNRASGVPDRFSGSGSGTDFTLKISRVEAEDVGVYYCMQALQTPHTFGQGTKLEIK
notes: Fully human; isolated from a phage display Fab library
For the molecule B3, the binding result with cell-surface FLT3 and with recombinant soluble FLT3 [3] was “binds” in each case.

B4: m1007 (antibody, V domains shown)
VH: B3 VH with L11V
VL: not shown
notes: as for B3
With B4, the binding result in the test with cell-surface FLT3 and with recombinant soluble FLT3 [3] was “binds” each time.

B5: m1009 (scFv)
scFv: EVQLVQSGGGLVQPGGSLRLSCAASGFTFSSYAMSWVRQAPGKGLEWVSGISWNSGSIGYADSVKGRFTISRDNAKNSLYLQMNSLRAEDTALYYCAKVGGGGAFDIWGQGTMVTVSSGGGGSGGGGSGGGGSQSVLTQPPSVSAAPGQKVTISCSGSSSSIGDNYVSWYQQVPGTAPKLLIYGNNKRPSGIPDRLSGSKSGTSATLGITGLQTGDEADYYCGTWDNSLGGVFGGGTKLTVL
notes: as for B2
Turning to B5, the binding result with cell-surface FLT3 and with recombinant soluble FLT3 [2] was “binds” in each case.

The record behind these values is US20190352408A1 (US Dept. of Health and Human Services, published 2019).
